Blank lines part the entries; values can stand above or below the binder they belong to.
Experiments:
[1] = target: T1, recombinant human CD63 extracellular loop 2 expressed with a C-terminal Myc-Myc-hexahistidine (human); test: SPR Biacore, mAb captured, 37C
T1 construct: also called hCD63 EC loop 2-MMH; human CD63 EC loop 2-MMH
Description: (§1) Equilibrium dissociation constants (KD) for different CD63 (EC2) loop reagents binding to purified anti-CD63 monoclonal antibodies were determined using a real-time surface plasmon resonance based Biacore T200 biosensor or Biacore 2000 biosensor. All binding studies were performed in 10 mM HEPES, 150 mM NaCl, 3 mM EDTA, and 0.05% v/v Surfactant Tween-20, pH 7.4 (HBS-ET) running buffer at 25° C. and 37° C. The Biacore CMS sensor chip surface was first derivatized by amine coupling with either a rabbit anti-mouse Fc specific polyclonal antibody (GE Healthcare, Cat #BR100838) or an anti-human Fab kit (GE Healthcare, Cat #28958325) to capture anti-CD63 monoclonal antibodies. […] The association rate (Kₐ) and dissociation rate (kd) were determined by fitting the real-time binding sensorgrams to a 1:1 binding model with mass transport limitation using Scrubber 2.0c curve-fitting software. Binding dissociation equilibrium constant (KD) and dissociative half-life (t½) were calculated from the kinetic rates as: […]
(§2) Binding kinetics parameters for human CD63 EC loop 2 protein binding to different anti-CD63 monoclonal antibodies of the invention at 25° C. and 37° C. are shown in Tables 6 through 9.

[2] = target: T2, recombinant human CD63 extracellular loop 2 expressed with a C-terminal human Fc tag (human); test: SPR Biacore, mAb captured, 37C
T2 construct: also called hCD63 EC loop 2-hFc; human CD63 EC loop 2-Fc
T2 sequence (chain, as listed by the source limits assumed): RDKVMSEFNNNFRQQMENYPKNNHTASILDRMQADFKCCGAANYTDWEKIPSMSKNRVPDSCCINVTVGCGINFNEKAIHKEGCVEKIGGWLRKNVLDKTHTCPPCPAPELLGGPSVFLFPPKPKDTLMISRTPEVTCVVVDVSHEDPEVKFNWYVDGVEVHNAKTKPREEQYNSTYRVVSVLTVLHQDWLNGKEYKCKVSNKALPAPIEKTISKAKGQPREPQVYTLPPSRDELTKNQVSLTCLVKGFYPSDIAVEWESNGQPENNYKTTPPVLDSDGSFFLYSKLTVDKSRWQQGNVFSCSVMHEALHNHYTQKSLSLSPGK
Description: as §1, §2

[3] = target: T1, recombinant human CD63 extracellular …; test: SPR Biacore, mAb captured, 25C
Description: as §1, §2

[4] = target: T2, recombinant human CD63 extracellular …; test: SPR Biacore, mAb captured, 25C
Description: as §1, §2

[5] = target: T3, human CD63 (human, UniProt P08962 2-238); test: ECL, LNCAP cells
T3 construct: stably transfected in NIH3T3/hCD63; The cell line is named under assay; also called hCD63
T3 sequence: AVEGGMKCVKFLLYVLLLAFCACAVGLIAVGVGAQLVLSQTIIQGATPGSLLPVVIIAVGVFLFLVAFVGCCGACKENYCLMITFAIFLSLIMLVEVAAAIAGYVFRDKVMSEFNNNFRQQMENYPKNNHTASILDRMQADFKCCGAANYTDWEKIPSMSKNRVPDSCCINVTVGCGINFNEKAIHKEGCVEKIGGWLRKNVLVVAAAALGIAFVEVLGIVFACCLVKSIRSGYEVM
Description: (§3) LNCAP cells were determined to have a lower human CD63 copy number than U87MG cells. Non-transfected NIH3T3 cells, which have no detectable expression of human CD63 by fluorescence activated cell sorting (FACS), were included as a negative control.
(§4) Briefly, cell lines were rinsed once in PBS buffer without Ca²⁺/Mg²⁺ and incubated for 10 minutes at 37° C. with Enzyme Free Cell Dissociation Solution (Millipore, Cat #S-004-C) to detach the cells. Cells were then washed once with PBS with Ca²⁺/Mg²⁺ and counted with a Cellometer™ Auto T4 cell counter (Nexcelom Bioscience, LLC). Approximately 2.0×10⁴ NIH3T3/hCD63, LNCAP, U87MG or NIH3T3 cells were seeded separately onto 96-well carbon electrode plates […]) and were then incubated for one hour at 37° C. Nonspecific binding sites were blocked with 2% BSA (w/v) in PBS with Ca²⁺/Mg²⁺ for one hour at room temperature (RT). Solutions containing anti-CD63 antibodies or isotype control antibodies at a range of concentrations (1.7 pM to 100 nM) in 0.5% BSA (w/v) in PBS with Ca²⁺/Mg²⁺, as well as control buffer alone, were then added in duplicate to the plate-bound NIH3T3/hCD63, LNCAP, U87MG or NIH3T3 cells and incubated for one hour at RT. Plates were subsequently washed to remove unbound antibodies using an AquaMax2000 plate washer with a cell washing head (MDS Analytical Technologies). […] Plates were washed and then incubated with Read Buffer (MSD, Cat #R92TD-2) according to the manufacturer's instructions. Luminescent signals were measured using a SECTOR Imager (MSD).

[6] = target: T3, human CD63; test: ECL, U87MG cells
Description: as §3, §4

[7] = target: T3, human CD63; test: ECL, NIH3T3/hCD63 cells
Description: as §3, §4

T1 sequence (chain, as listed by the source limits assumed): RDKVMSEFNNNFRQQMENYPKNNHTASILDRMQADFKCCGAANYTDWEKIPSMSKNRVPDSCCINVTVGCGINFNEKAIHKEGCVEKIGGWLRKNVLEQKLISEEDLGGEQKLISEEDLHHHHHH

100 nM Ag Bound (RU) [1]: 81 RU
Kd [1]: 124 nM
koff [1]: 0.0198 s⁻¹
kon [1]: 160000 M⁻¹ s⁻¹
t1/2 [1]: 0.6 min
100 nM Ag Bound (RU) [2]: 338 RU
Kd [2]: 0.104 nM
koff [2]: 4.96e-05 s⁻¹
kon [2]: 482000 M⁻¹ s⁻¹
t1/2 [2]: 233 min
100 nM Ag Bound (RU) [3]: 94 RU
Kd [3]: 30.6 nM
koff [3]: 0.00591 s⁻¹
kon [3]: 193000 M⁻¹ s⁻¹
t1/2 [3]: 2 min
100 nM Ag Bound (RU) [4]: 275 RU
Kd [4]: 0.209 nM
koff [4]: 8.99e-05 s⁻¹
kon [4]: 430000 M⁻¹ s⁻¹
t1/2 [4]: 128 min
EC50 [5]: 5.1 nM
binding ratio at 3.7 nM vs NIH3T3 [5]: 6 fold
EC50 [6]: 4.8 nM
binding ratio at 3.7 nM vs NIH3T3 [6]: 66 fold
EC50 [7]: 0.93 nM
binding ratio at 3.7 nM vs NIH3T3 [7]: 168 fold
B1: H4H11990P2 (antibody, V domains shown)
VH: QVQLVESGGGLVKPGGSLRLSCATSGFTFTDYFMNWIRQAPGKGLEWVSYISNSGSIRYYADSVRGRFSISRDNAKNSLYLQMSSLRADDTAVYYCVRDPRQIYGMDVWGQGTTVTVSS
VL: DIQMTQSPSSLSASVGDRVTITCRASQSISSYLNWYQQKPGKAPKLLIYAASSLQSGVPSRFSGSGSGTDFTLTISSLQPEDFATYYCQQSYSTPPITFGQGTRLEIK

100 nM Ag Bound (RU) [1]: 30 RU
Kd [1]: 12300 nM
koff [1]: 0.0814 s⁻¹
kon [1]: 6600 M⁻¹ s⁻¹
t1/2 [1]: 0.1 min
100 nM Ag Bound (RU) [2]: 358 RU
Kd [2]: 1.05 nM
koff [2]: 0.000682 s⁻¹
kon [2]: 647000 M⁻¹ s⁻¹
t1/2 [2]: 17 min
100 nM Ag Bound (RU) [3]: 53 RU
Kd [3]: 213 nM
koff [3]: 0.0267 s⁻¹
kon [3]: 125000 M⁻¹ s⁻¹
t1/2 [3]: 0.4 min
100 nM Ag Bound (RU) [4]: 304 RU
Kd [4]: 0.401 nM
koff [4]: 0.000257 s⁻¹
kon [4]: 641000 M⁻¹ s⁻¹
t1/2 [4]: 45 min
EC50 [5]: 3.6 nM
binding ratio at 3.7 nM vs NIH3T3 [5]: 4 fold
EC50 [6]: 5.5 nM
binding ratio at 3.7 nM vs NIH3T3 [6]: 33 fold
EC50 [7]: 1.5 nM
binding ratio at 3.7 nM vs NIH3T3 [7]: 87 fold
B2: H4H11992P2 (antibody, V domains shown)
VH: QVQLVESGGGLVKPRGSLRLSCAASGFIFDDYFMNWIRQAPGKGLEWVSYISNSGNTKYYADSVKGRFTISRDNAYNSLYLQMNSLRAEDTAVYYCVRDPRSYYGMDVWGQGTTVTVSS
VL: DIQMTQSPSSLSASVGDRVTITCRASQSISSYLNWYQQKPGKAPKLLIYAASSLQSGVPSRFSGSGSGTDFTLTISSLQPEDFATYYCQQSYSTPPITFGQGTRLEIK

100 nM Ag Bound (RU) [1]: 3 RU
Kd [1]: 1620 nM
koff [1]: 0.128 s⁻¹
kon [1]: 79400 M⁻¹ s⁻¹
t1/2 [1]: 0.1 min
100 nM Ag Bound (RU) [2]: 116 RU
Kd [2]: 14.5 nM
koff [2]: 0.0188 s⁻¹
kon [2]: 1.29e+06 M⁻¹ s⁻¹
t1/2 [2]: 1 min
100 nM Ag Bound (RU) [3]: 8 RU
100 nM Ag Bound (RU) [4]: 198 RU
Kd [4]: 10.1 nM
koff [4]: 0.00555 s⁻¹
kon [4]: 552000 M⁻¹ s⁻¹
t1/2 [4]: 2 min
EC50 [5]: 55 nM
binding ratio at 3.7 nM vs NIH3T3 [5]: 5 fold
EC50 [6]: 13 nM
binding ratio at 3.7 nM vs NIH3T3 [6]: 61 fold
EC50 [7]: 5 nM
binding ratio at 3.7 nM vs NIH3T3 [7]: 212 fold
B3: H4H11995P2 (antibody, V domains shown)
VH: EVQLVESGGALVQPGRSLRLSCAASGFTFDDYAMHWVRQAPGKGLEWVSGISWNSGTMGYADSVKGRFTISRDNAKKSLYLQMNSLRAEDTALYYCGKGLLHQWEVLDYWGQGTLVTVSS
VL: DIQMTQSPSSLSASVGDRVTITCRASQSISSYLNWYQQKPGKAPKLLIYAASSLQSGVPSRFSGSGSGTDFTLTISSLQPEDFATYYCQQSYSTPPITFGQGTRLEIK

Reference: patent publication US20210079109A1 (Regeneron, published 2021)
